Test results from patent US20020077289A1, “Angiostatin and endostatin binding proteins and methods of use” (priority 2000, published 2002).

What was measured:
[1] = biological target: T1, rhTM3 (human tropomyosin isoform 3) (Homo sapiens, UniProt P09493); assay: Surface plasmon resonance (BIAcore) binding to immobilized rhTM3; settings: steady state model; soluble rhEndostatin over immobilized rhTM3 (3200 RU); 25° C; read-out: dissociation constant (KD) for the rhEndostatin/rhTM3 interaction
T1 construct: made in house; host or cells: E. coli BL21 (DE3), pET-21a(+)
Protocol: (A), 0, 10, 20, 40, 80 and 160 micromolar (μM) of rhEndostatin were injected at 5 microliters per minute (μl/minute) for 960 seconds through a biosensor flow cell that had been activated and blocked as a control for bulk refractive index and subsequently through a flow cell to which 3200 response units (RU) of rhTM3 had been immobilized. The binding kinetics were recorded and the differences between the two curves plotted for each rhEndostatin concentration. (B), 0, 11.5, 23 and 46 micromolar (μM) of rhAngiostatin were injected at 5 microliters per minute (μl/minute) for 900 seconds over a flow cell containing 3200 RU of rhTM3 as above. Samples were run in duplicate, the data corrected for bulk shift and the average of the 2 curves plotted. (C), Injection of 5 micromolar (μM) of rhEndostatin at 5 microliters per minute (μl/minute) for 240 seconds in the presence of 0, 6, 15, 30 and 45 micromolar (μM) of soluble rhTM3 over a flow cell containing 2000 RU of rhTM3. Samples were run in duplicate, the reference cell values subtracted and the average of each of the 2 curves plotted. The spikes in RU seen at the beginning and end of each injection are due to lag in flow caused by the rhTM3 and reference cells being non-adjacent.
Interactions between purified soluble rhEndostatin and rhTM3 were evaluated by surface plasmon resonance using the BIAcore 3000 (BiaCore, Piscataway, N.J.). The purified rhTM3 was immobilized on the flow cell of a CM-5 BIAcore biosensor chip. The running buffer was 0.01 M HEPES, pH 7.4, 0.15M NaCl and 0.005% polysorbate 20 (v/v). The competition experiments involving soluble rhTM3 were performed using PBS pH 7.4 as running buffer. All measurements were performed at 25° C. To correct for differences in bulk refraction all protein preparations were passed over an activated and blocked flow cell to which no protein had been coupled. Effects due to bulk shift were subtracted from experimental data.
Surface plasmon resonance performed using the BIAcore 3000 (BiaCore, Piscataway, N.J.) was used to assess the kinetics of rhEndostatin/rhTM3 binding. […]

[2] = Pharmacokinetics: serum rhEndostatin levels after s.c. administration; type: in vivo, C57BL/6J mice; settings: for AUClast: sera 0.17-2 hours
Protocol: To determine the pharmacokinetics, C57BL/6J mice (3 per time point) were dosed s.c. with 1.5 nmol of rhEndostatin alone or in combination with 375 nmol of either E37 or control peptide. Sera was collected 0.17, 0.5, 1 and 2 hours following s.c. administration. Serum drug levels were determined using an Endostatin EIA kit (Cytlmmune Sciences, College Park, Md.) according to the manufacture's instructions. Pharmacokinetic analyses of the serum concentration versus time data were performed by nonlinear least square minimization using RSTRIP (Version 4.03, MicroMath Scientific Software, Salt Lake City, Ut.).
Groups of mice (3 mice/time point) were injected s.c. with 1.5 nmol of rhEndostatin alone or in combination with a 250-fold molar excess of either E37 or control peptide. Sera were collected at 0.17, 0.5, 1 and 2 hours following s.c. administration, and assessed for serum rhEndostatin levels as previously described (Sim et al.)

viable HUVECs = assay: Internalization of Alexa Fluor 488 labeled rhEndostatin by viable HUVECs; type: cell-based, human
Protocol: To determine whether live endothelial cells actively internalize Endostatin protein, viable HUVECs were incubated with Alexa Fluor™ 488 labeled rhEndostatin protein. […] Internalized rhEndostatin was rapidly processed such that by 60 minutes, little if any intercellular fluorescence was detected (data not shown).

[3] = tested on: primary cultures of pericytes; assay: Proliferation of PDGF-BB or 20% fetal calf serum stimulated pericytes (thymidine incorporation, MTT); type: cell-based
Description: (§1) Endostatin protein results in an inhibition of proliferation of PDGF-BB or 20% fetal calf serum stimulated primary cultures of pericytes and to a lesser extent fibroblasts. […] The results have been confirmed using a MTT proliferation kit.
Endostatin protein tends to have a greater effect on cells in the earlier stages of differentiation. While such cells constitute a small fraction of the total number, inhibiting their proliferation may have significant effects on the final total cell number. Endostatin protein's effect on cells early in the differentiation pathway results in a reduction of 70-80% of the final cell number. Endostatin protein also changes the morphology of these cells (data not shown).

fibroblasts = assay: Proliferation of PDGF-BB or 20% fetal calf serum stimulated fibroblasts (thymidine incorporation, MTT); type: cell-based; settings: stimulated with PDGF-BB or 20% fetal calf serum; compared with pericytes
Description: as §1

G-actin = assay: Actin polymerization light scatter assay; type: biochemical; settings: G-actin/Endostatin nucleation complexes
Description: As a result of the inventors findings, also included herein are_antiangiogenic actin-binding molecules. Though not wishing to be bound by the following theory, it is believed that since actin polymerization is affected by Endostatin it could possibly mean that Endostatin is binding to the actin component of the microfilaments, in addition to or in association with tropomyosin. […] Accordingly, molecules such as Endostatin that have an effect on actin polymerization will have an effect on microfilaments resulting in anti-angiogenic activity through modification of cell motility, and induction of cell apoptosis. Preferred embodiments of the present invention include compositions comprising proteins and chemicals that bind tropomyosin isoforms, such as hTM3. In certain embodiments, such compositions may be characterized as antiangiogenic actin-binding molecules.

B16-BL6 melanoma cells = assay: B16-BL6 experimental metastasis assay; type: in vivo, C57BL/6J mice; settings: dose of 1.3 nmol rhEndostatin
wound healing = settings: in vivo; cited from earlier work
mammary tumor = settings: i.v. technetium (99mTc) labeled rhEndostatin, 100 μCi/rat; personal communication; cited from earlier work
[4] = parenteral administration; cited from earlier work

T1 sequence (P09493 1-284 isoform P09493-3): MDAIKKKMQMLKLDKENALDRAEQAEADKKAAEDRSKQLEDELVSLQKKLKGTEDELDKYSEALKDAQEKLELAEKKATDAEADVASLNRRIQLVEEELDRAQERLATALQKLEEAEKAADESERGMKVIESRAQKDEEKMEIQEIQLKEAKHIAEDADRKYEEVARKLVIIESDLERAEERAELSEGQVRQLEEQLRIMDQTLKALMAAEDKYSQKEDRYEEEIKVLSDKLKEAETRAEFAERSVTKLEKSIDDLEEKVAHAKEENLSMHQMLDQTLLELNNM

B1: rhEndostatin: recombinant human Endostatin, antiangiogenic fragment of a C-terminal non-collagenous region of a collagen protein, produced in P. pastoris (protein)
chain: HSHRDFQPVLHLVALNSPLSGGMRGIRGADFQCFQQARAVGLAGTFRAFLSSRLQDLYSIVRRADRAAVPIVNLKDELLFPSWEALFSGSEGPLKPGARIFSFDGKDVLRHPTWPQKSVWHGSDPNGRRLTESYCETWRTEAPSATGQASSLLGGRLLGQSAASCHHAYIVLCIENSFMTASK
- Kd [1]: ~100 µM
- AUClast ([2]; 1.5 nmol rhEndostatin s.c. + 250x E37 peptide): 4544 ng·min/mL
- AUClast ([2]; 1.5 nmol rhEndostatin s.c. + 250x control peptide): 5552 ng·min/mL
- AUClast ([2]; 1.5 nmol rhEndostatin s.c. alone): 5370 ng·min/mL
- AUClast relative to rhEndostatin alone or with 375 nmol control peptide ([2]; 1.5 nmol rhEndostatin s.c. co-administered with 250-fold molar excess of E37 peptide): 85%
- internalization by live endothelial cells (viable HUVECs): rapidly internalized and translocated predominantly to the nucleus
- differentiation of pericytes to fibroblasts [3]: does not appear to affect
- reduction of the final cell number ([3]; effect on cells early in the pericyte/fibroblast differentiation pathway): 70-80%
- thymidine incorporation into primary cultures of pericytes ([3]; stimulated with PDGF-BB or 20% fetal calf serum): consistent reduction in thymidine incorporation
- thymidine incorporation into fibroblasts (fibroblasts): to a lesser degree
- effect on actin polymerization (G-actin): shorten the lag phase and facilitate actin polymerization
- inhibition of lung metastases inferred from dose titration of rhEndostatin (Sim et al) (B16-BL6 melanoma cells): 77%
- effect on wound healing (wound healing): remained unaffected
- time after injection at which the tumor could be visualized (mammary tumor): 0.5 to 4 h
- circulating levels [4]: nM range
